Measurements published in publication PMC10899256, “TBC1D23 mediates Golgi-specific LKB1 signaling” (Nature Communications, 2024).

Experiments:
[1] = target: T1, purified GST-TBC1D23 PH domain (545–684) (human, UniProt Q9NUY8-2 545-684); assay: pull-down; recombinant proteins: MBP or MBP-tagged LKB1 CRD-LFa held, purified GST-TBC1D23 PH as prey; same procedure as for GST-tagged proteins (50 mM Tris pH 8.0, 500 mM NaCl, 0.05% Triton X-100, 4 °C 1 h); details: both partners purified
T1 construct: also called purified TBC1D23 PH

[2] = target: T2, purified TBC1D23 PH domain (545–684) (human, UniProt Q9NUY8-2 545-684); assay: ITC; LKB1-LFa motif peptides (1.0 mM) titrated into TBC1D23 PH domain (50 µM) at 25 °C; 100 mM Tris pH 8.0, 500 mM NaCl, 5% v/v glycerol; details: both partners purified
T2 construct: Used as prey for GST-tagged baits on glutathione beads and in ITC, so the GST was probably removed
T2 sequence (Q9NUY8 560-699): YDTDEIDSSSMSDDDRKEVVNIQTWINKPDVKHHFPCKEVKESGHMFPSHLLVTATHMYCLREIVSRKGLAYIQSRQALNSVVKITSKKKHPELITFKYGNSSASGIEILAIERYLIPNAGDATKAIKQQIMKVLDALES

T1 sequence (Q9NUY8 560-699): as above

Row | binding result [1] | fold by which the affinity of LKB1 WT is higher [2] [fold] | Binder | also measured
1 | binds | – | MBP-LKB1 CRD-LFa WT (domain or fragment, human, UniProt Q15831 347-433, looked up, LKB1 (STK11) CRD, residues 347–433; also called LKB1 WT; LKB1 CRD (347–433)) ADEDEDLFDIEDDIIYTQDFTVPGQVPEEEASHNGQRRGLPKAVCMNGTEAAQLSTKSRAEGRAPNPARKACSASSKIRRLSACKQQ | –
2 | – | ~3 | GADEDEDLLDIEDDIIYTQD (LKB1 (STK11) LFa motif peptide with F354L, a mutation reported in Peutz–Jeghers patients and present in gnomAD; also called LKB1 F354L; LKB1-LFa mutants) [LKB1 LFa peptide F354L] | –
3 | – | ~3 | GADEDEDLADIEDDIIYTQD (LKB1 (STK11) LFa motif peptide with F354A; also called LKB1 F354A; LKB1-LFa mutants) [LKB1 LFa peptide F354A] | –

The remaining lines, values behind:

Row | Binder | binding result [1] | fold by which the affinity of LKB1 WT is higher [2] [fold] | also measured
4 | MBP-LKB1 CRD-LFa F354L (domain or fragment, human, UniProt Q15831 347-433, looked up, LKB1 (STK11) CRD, residues 347–433, with F354L (reported in Peutz–Jeghers patients, present in gnomAD); also called LKB1 F354L) ADEDEDLLDIEDDIIYTQDFTVPGQVPEEEASHNGQRRGLPKAVCMNGTEAAQLSTKSRAEGRAPNPARKACSASSKIRRLSACKQQ | binds | – | –
5 | MBP-LKB1 CRD-LFa F354A (domain or fragment, human, UniProt Q15831 347-433, looked up, LKB1 (STK11) CRD, residues 347–433, with F354A; also called LKB1 F354A) ADEDEDLADIEDDIIYTQDFTVPGQVPEEEASHNGQRRGLPKAVCMNGTEAAQLSTKSRAEGRAPNPARKACSASSKIRRLSACKQQ | binds | – | –
6 | GADEDEDLFDIEDDIIYTQD (LKB1 (STK11) LFa motif peptide; also called LKB1-LFa motif peptide; LKB1-LFa WT) [LKB1 LFa peptide WT] | – | – | Ka [2]: 1.25e+06 M⁻¹; Kd [2]: 800 nM; stoichiometry N [2]: 1
